Assay results published in patent US20230295335A1 (published 2023).
Residue numbers refer to the chain shown, from its start.

T1: full length mouse EpCAM on CHO-S cells (mouse, UniProt Q99JW5 24-315)
T1 sequence: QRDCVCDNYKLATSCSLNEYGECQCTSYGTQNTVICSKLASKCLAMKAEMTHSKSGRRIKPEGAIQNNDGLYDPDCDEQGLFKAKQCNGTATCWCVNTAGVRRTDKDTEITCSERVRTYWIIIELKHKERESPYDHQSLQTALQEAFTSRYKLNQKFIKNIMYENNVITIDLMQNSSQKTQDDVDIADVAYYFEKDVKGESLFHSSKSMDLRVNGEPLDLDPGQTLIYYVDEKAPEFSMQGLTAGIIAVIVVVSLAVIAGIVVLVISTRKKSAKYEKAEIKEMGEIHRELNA

T2: full length cynomolgus monkey EpCAM on CHO-S cells (cynomolgus monkey, UniProt Q1WER1 24-314 (rhesus entry))
T2 sequence: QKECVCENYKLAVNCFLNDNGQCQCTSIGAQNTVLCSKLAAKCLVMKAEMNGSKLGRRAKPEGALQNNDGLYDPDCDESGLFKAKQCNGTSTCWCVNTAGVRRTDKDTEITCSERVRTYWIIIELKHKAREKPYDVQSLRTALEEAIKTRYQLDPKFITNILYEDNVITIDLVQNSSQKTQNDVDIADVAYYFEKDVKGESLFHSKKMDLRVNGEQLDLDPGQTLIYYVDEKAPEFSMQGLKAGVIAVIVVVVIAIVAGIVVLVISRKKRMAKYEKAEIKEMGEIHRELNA

T3: recombinant human EpCAM (R&D systems, cat no 9277-EP) (human, UniProt P16422 24-265)
T3 construct: also called human EpCAM extracellular domain
T3 sequence: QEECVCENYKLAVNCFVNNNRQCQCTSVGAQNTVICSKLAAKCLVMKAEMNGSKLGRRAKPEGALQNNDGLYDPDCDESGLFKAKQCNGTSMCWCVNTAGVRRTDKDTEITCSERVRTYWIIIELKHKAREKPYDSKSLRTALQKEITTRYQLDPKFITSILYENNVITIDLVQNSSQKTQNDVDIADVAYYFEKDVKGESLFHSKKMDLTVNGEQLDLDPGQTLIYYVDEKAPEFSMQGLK

B1: IgG1-EpCAM-UBS-54-FEAR (antibody, V domains shown)
VH: QVQLVQSGAEVKKPGSSVRVSCKASGGTFSSYAISWVRQAPGQGLEWMGGIIPIFGTANYAQKFQGRVTITADESTSTAYMELSSLRSEDTAVYYCARDPFLHYWGQGTLVTVSS
VL: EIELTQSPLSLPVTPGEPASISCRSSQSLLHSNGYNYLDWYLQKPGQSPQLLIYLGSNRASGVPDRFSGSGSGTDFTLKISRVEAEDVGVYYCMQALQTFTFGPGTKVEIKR
B2: bsIgG1-EpCAM-A37-FERL/CD137-009-HC7LC2-FEAR (bispecific antibody)
heavy 1: not shown
light 1: EIELTQSPGTLSLSPGERATLSCRASQTISNNYLAWYQQKRGQAPRLLIYAASSRATGIPDRFSGTGSGTDFTLTISRLEPEDFAVYYCAQGELYPRQFGGGTKLEIKRTVAAPSVFIFPPSDEQLKSGTASVVCLLNNFYPREAKVQWKVDNALQSGNSQESVTEQDSKDSTYSLSSTLTLSKADYEKHKVYACEVTHQGLSSPVTKSFNRGEC
heavy 2: EVQLVESGGGLVQPGRSLRLSCTASGFSLNDYWMSWVRQAPGKGLEWVGYIDVGGSLYYAASVKGRFTISRDDSKSIAYLQMNSLKTEDTAVYYCARGGLTYGFDLWGQGTLVTVSSASTKGPSVFPLAPSSKSTSGGTAALGCLVKDYFPEPVTVSWNSGALTSGVHTFPAVLQSSGLYSLSSVVTVPSSSLGTQTYICNVNHKPSNTKVDKRVEPKSCDKTHTCPPCPAPEFEGGPSVFLFPPKPKDTLMISRTPEVTCVVVAVSHEDPEVKFNWYVDGVEVHNAKTKPREEQYNSTYRVVSVLTVLHQDWLNGKEYKCKVSNKALPAPIEKTISKAKGQPREPQVYTLPPSREEMTKNQVSLTCLVKGFYPSDIAVEWESNGQPENNYKTTPPVLDSDGSFFLYSRLTVDKSRWQQGNVFSCSVMHEALHNHYTQKSLSLSPG
light 2: DIVMTQSPSSLSASVGDRVTITCQASEDISSYLAWYQQKPGKAPKRLIYGASDLASGVPSRFSASGSGTDYTFTISSLQPEDIATYYCHYYATISGLGVAFGGGTKVEIKRTVAAPSVFIFPPSDEQLKSGTASVVCLLNNFYPREAKVQWKVDNALQSGNSQESVTEQDSKDSTYSLSSTLTLSKADYEKHKVYACEVTHQGLSSPVTKSFNRGEC
B3: bsIgG1-CD137-009-HC7LC2-FEAL/EpCAM-A37-FEAR (bispecific antibody)
heavy 1: B2 heavy 2 with F405L, R409K
light 1: B2 light 2
heavy 2: not shown
light 2: B2 light 1
B4: IgG1-EpCAM-A37-FEAR (antibody)
heavy: not shown
light: B2 light 1
B5: IgG1-EpCAM-C52-FEAR (antibody, V domains shown)
VH: B1 VH with S16A, R19K, I52V
VL: EIELTQSPGTLSLSPGERATLSCRASQSVSSSYLAWYQQKPGQAPRLLIYGASSRATGIPDRFSGSGSGTDFTLTISRLEPEDFAVYYCAQGELYPRQFGGGTKLDIKR
notes: The running text prints C52 as 052; also called IgG1-EpCAM-052-FEAR
B6: IgG1-EpCAM-323-A3-FEAR (antibody)
heavy: QIQLVQSGPELKKPGETVKISCKASGYTFTNYGMNWVRQASGEGLKWMGWINTYTGEPTYGEDFKGRFAFSLETSASTAYLQINNLKNEDTATYFCARFGNYVDYWGQGTTLTVSSASTKGPSVFPLAPSSKSTSGGTAALGCLVKDYFPEPVTVSWNSGALTSGVHTFPAVLQSSGLYSLSSVVTVPSSSLGTQTYICNVNHKPSNTKVDKRVEPKSCDKTHTCPPCPAPEFEGGPSVFLFPPKPKDTLMISRTPEVTCVVVAVSHEDPEVKFNWYVDGVEVHNAKTKPREEQYNSTYRVVSVLTVLHQDWLNGKEYKCKVSNKALPAPIEKTISKAKGQPREPQVYTLPPSREEMTKNQVSLTCLVKGFYPSDIAVEWESNGQPENNYKTTPPVLDSDGSFFLYSRLTVDKSRWQQGNVFSCSVMHEALHNHYTQKSLSLSPG
light: DIVMTQAAFSNPVTLGTSASISCRSSKNLLHSNGITYLYWYLQKPGQSPHLLIYQMSNLASGVPDRFSSSGSGTDFTLRISRVEAEDVGVYYCAQNLEIPRTFGGGTKLEIKRTVAAPSVFIFPPSDEQLKSGTASVVCLLNNFYPREAKVQWKVDNALQSGNSQESVTEQDSKDSTYSLSSTLTLSKADYEKHKVYACEVTHQGLSSPVTKSFNRGEC
notes: also called IgG1-323-A3-FEAR
B7: IgG1-EpCAM-323-A3 (antibody)
heavy: not shown
light: B6 light
notes: Unmodified IgG1 constant region

Assays:
[1] = biological target: T1, full length mouse EpCAM on CHO-S cells; test: flow cytometry on CHO-S cells transfected with mouse EpCAM
Description: (§1) Binding of EpCAM antibodies to CHO-S cells transiently transfected with full length human, cynomolgus monkey or mouse EpCAM was analyzed by flow cytometry. […] Cells were washed twice in FACS buffer, re-suspended in 20 μL FACS buffer supplemented with TO-PRO™-3 Iodide (diluted 1:20000; Invitrogen, cat. no. T3605) and analyzed on an iQue screener (Intellicyt Corporation, USA). Binding curves were analyzed by non-linear regression (sigmoidal dose-response with variable slope) using GraphPad Prism V8.4.1 software (GraphPad Software, San Diego, CA, USA).

[2] = biological target: T2, full length cynomolgus monkey EpCAM on …; test: flow cytometry on CHO-S cells transfected with cynomolgus monkey EpCAM
Description: as §1

[3] = biological target: T3, recombinant human EpCAM (R&D systems, …); test: BLI classical sandwich cross-block; human EpCAM held by immobilized first antibody IgG1-EpCAM-A37-FEAR (competitor); second antibody 10 µg/mL in solution
Description: (§2) The theoretical molecular mass of human EpCAM based on the amino acid sequence (28 kDa) was used for calculations. The association (300 s) of a second EpCAM antibody (10 μg/mL in Sample Diluent) was determined. Data were acquired using Data Acquisition Software v12.0.1.8 (FortéBio) and analyzed with Data Analysis HT Software v12.0.1.55 (FortéBio). Data traces were corrected by subtraction of a reference curve (Sample Diluent instead of second antibody) in order to correct for the dissociation of human EpCAM from the immobilized first antibody. The Y-axis was aligned to the start of the association step and Savitzky-Golay filtering was applied. The corrected association responses of the second antibodies were plotted in a matrix format. […] By contrast, responses between −0.1 and 0.1 nm were considered to be blocking antibody pairs.

[4] = biological target: T3, recombinant human EpCAM (R&D systems, …); test: BLI classical sandwich cross-block; human EpCAM held by immobilized first antibody IgG1-EpCAM-C52-FEAR (competitor); second antibody 10 µg/mL in solution
Description: as §2

[5] = biological target: T3, recombinant human EpCAM (R&D systems, …); test: BLI classical sandwich cross-block; human EpCAM held by immobilized first antibody IgG1-EpCAM-323-A3-FEAR (competitor); second antibody 10 µg/mL in solution
Description: as §2

[6] = biological target: T3, recombinant human EpCAM (R&D systems, …); test: BLI classical sandwich cross-block; human EpCAM held by immobilized first antibody IgG1-EpCAM-UBS-54-FEAR (competitor); second antibody 10 µg/mL in solution
Description: as §2

[7] = biological target: human 4-1BB (CD137) on cells (human, UniProt Q07011 24-255); test: cell-based or functional assay
Sequence of human 4-1BB (CD137) on cells (Q07011 24-255): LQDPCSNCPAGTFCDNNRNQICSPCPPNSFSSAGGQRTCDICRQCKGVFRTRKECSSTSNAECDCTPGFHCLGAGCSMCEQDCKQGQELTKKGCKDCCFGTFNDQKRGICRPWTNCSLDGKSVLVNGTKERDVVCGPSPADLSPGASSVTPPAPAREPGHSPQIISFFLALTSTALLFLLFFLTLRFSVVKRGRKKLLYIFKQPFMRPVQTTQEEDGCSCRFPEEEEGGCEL

[8] = biological target: T4, FcγRIa (human, UniProt P12314 16-288, limits assumed, biotinylated); test: SPR (Biacore 8K); His-tagged FcγR captured on anti-His chip
T4 construct: Bought His-tagged protein captured on anti-His chip; also called CD64 Protein, Human, Recombinant (His Tag), Biotinylated
T4 sequence (P12314 16-288 limits assumed): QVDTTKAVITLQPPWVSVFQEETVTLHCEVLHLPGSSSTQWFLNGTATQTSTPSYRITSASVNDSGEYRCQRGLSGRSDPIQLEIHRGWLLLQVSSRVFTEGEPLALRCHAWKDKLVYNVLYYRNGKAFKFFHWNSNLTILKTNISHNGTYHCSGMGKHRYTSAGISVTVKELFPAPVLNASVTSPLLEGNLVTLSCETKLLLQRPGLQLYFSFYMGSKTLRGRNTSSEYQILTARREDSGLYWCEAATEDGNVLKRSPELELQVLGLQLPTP
Description: (§3) At the end of each cycle, the surface was regenerated using 10 mM Glycine-HCl pH 1.5 (Cytiva, cat. no. BR100354).

[9] = biological target: T5, FcγRIIIa-F158 (human, UniProt P08637 17-208); test: as above
T5 construct: extracellular domain; Bought His-tagged protein
T5 sequence (P08637 17-208): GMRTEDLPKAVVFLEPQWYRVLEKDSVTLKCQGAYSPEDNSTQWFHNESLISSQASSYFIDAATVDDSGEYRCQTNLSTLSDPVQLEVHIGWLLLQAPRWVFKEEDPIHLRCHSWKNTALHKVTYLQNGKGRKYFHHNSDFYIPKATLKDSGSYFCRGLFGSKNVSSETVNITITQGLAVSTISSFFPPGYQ
Description: as §3

[10] = biological target: T6, FcγRIIIa-V158 (human, UniProt P08637 17-208); test: as above
T6 construct: Bought His-tagged protein
T6 sequence (P08637 17-208 F176V limits assumed): as the sequence (P08637 17-208) above, with F160V counted along it
Description: as §3

| Binder | binding result [1] | binding result [2] | corrected association response of the antibody in solution [3] [nm] | corrected association response of the antibody in solution [4] [nm] | corrected association response of the antibody in solution [5] [nm] | corrected association response of the antibody in solution [6] [nm] | other results |
| --- | --- | --- | --- | --- | --- | --- | --- |
| B1 | binds | binds | -0.03 | -0.01 | 0 | -0.02 |  |
| B2 |  |  |  |  |  |  | EC50 CD107a GMFI (donor 1) [7]: 0.0503 µg/mL; EC50 CD107a GMFI (donor 2) [7]: 0.03 µg/mL; EC50 CD107a GMFI (donor 3) [7]: 0.0217 µg/mL; EC50 CD107a GMFI (donor 4) [7]: 0.012 µg/mL; EC50 CD107a GMFI (donor 6) [7]: 0.021 µg/mL; EC50 GzmB GMFI (donor 1) [7]: 0.0179 µg/mL; EC50 GzmB GMFI (donor 2) [7]: 0.0176 µg/mL; EC50 GzmB GMFI (donor 3) [7]: 0.0204 µg/mL; EC50 GzmB GMFI (donor 4) [7]: 0.0121 µg/mL; EC50 GzmB GMFI (donor 5) [7]: 0.0201 µg/mL; EC50 GzmB GMFI (donor 6) [7]: 0.0224 µg/mL; binding result [8]: no binding (tested: 3,000 nM (highest concentration tested)); binding result [9]: no binding (tested: 10,000 nM (highest concentration tested)); binding result [10]: no binding (tested: 10,000 nM (highest concentration tested)) |
| B3 |  |  |  |  |  |  | binding result [8]: no binding (tested: 3,000 nM (highest concentration tested)); binding result [9]: no binding (tested: 10,000 nM (highest concentration tested)); binding result [10]: no binding (tested: 10,000 nM (highest concentration tested)) |
| B4 | binds | binds | -0.04 | 0 | -0.01 | 0 |  |
| B5 | binds | binds | -0.03 | -0.02 | -0.01 | 0 |  |
| B6 |  |  | -0.02 | -0.02 | 0 | -0.01 |  |
| B7 | binds | binds |  |  |  |  |  |
